Source: publication PMC6748439, “Structural Insights into Curli CsgA Cross-β Fibril Architecture Inspire Repurposing of Anti-amyloid Compounds as Anti-biofilm Agents” (PLoS Pathogens, 2019)

B1: CsgA segment 45LNIYQY50 (R1 repeat) (peptide)
peptide: LNIYQY
notes: CsgA residues 45-50 (R1 repeat), numbered on UniProt P28307; Unmodified termini for crystallography; in the seeding assay Ac-LNIYQY-NH2, in the ThT assay with D-peptides capped at the C-terminus; also called R1 segment 45LNIYQY50; source: synthetic peptide, bought: GL Biochem (Shanghai) Ltd
B2: CsgA segment 137VTQVGF142 (R5 repeat) (peptide)
peptide: VTQVGF
notes: Unmodified termini for crystallography; in the seeding assay Ac-VTQVGF-NH2, in the ThT assay with D-peptides capped at the C-terminus; source: synthetic peptide, bought: GL Biochem (Shanghai) Ltd
B3: CsgA segment 47IYQYGG52 (R1 repeat) (peptide)
peptide: IYQYGG
notes: CsgA residues 47-52 (R1 repeat), numbered on UniProt P28307; Unmodified termini for crystallography; in the seeding assay Ac-IYQYGG-NH2; also called R1 segment 47IYQYGG52; source: synthetic peptide, bought: GL Biochem (Shanghai) Ltd
B4: CsgA segment 129TASNSS134 (R4-R5 loop) (peptide)
peptide: TASNSS
notes: Unmodified termini for crystallography; source: synthetic peptide, bought: GL Biochem (Shanghai) Ltd

Assays:
[1] = target: CsgA, the major curli subunit (recombinant, C-terminal His6-tag) (Escherichia coli) (UniProt P28307); assay: SEC-MALS; freshly purified CsgA concentrated to 1.8 mg/ml, Superdex 75 10/300, miniDAWN TREOS; hexamer beside a majority of monomer
[2] = target: the molecule itself; assay: crystal structure; peptides with free (unmodified) termini, hanging drop, 293 K; micro-crystals, data collected at 100 K; LNIYQY and TASNSS crystals grown in a mixture with TAIVVQ of CsgB, which was not present in the crystals

| Molecule | stoichiometry N [1] | binding result [2] |
| --- | --- | --- |
| CsgA, the major curli subunit (recombinant, C-terminal His6-tag) (from UniProt P28307 21-151) (natural protein) | 6 | – |
| B1 | – | binds |
| B2 | – | binds |
| B3 | – | binds |
| B4 | – | binds |
